These results are taken from the DeepSol protein solubility set.

A short description of the series: soluble on expression in E. coli; label from the status in PepcDB or PDB records.
As for “MKKIQTPNAKGEVRIIAGLWRGRKLPVLNSEGLRPTGDRVKETLFNWLMPYIHQSECLDGFAGSGSLGFEALSRQAKKVTFLELDKTVANQLKKNLQTLKCSSEQAEVINQSSLDFLKQPQNQPHFDVVFLDPPFHFNLAEQAISLLCENNWLKPNALIYVETEKDKPLITPENWTLLKEKTTGIVSYRLYQNLEHHHHHH”, the “soluble on expression in E. coli” value was “soluble”.

“SAASGEEDMSELSPAAAPNLDWYEKPEETHAPEVDLETVIPPAQEPSNPAEPFCPRDLVPVVFPGPVSQEDCCQFTCELLKHILYQRHQLPLPYEQLKHFYRKAPQAEDTARKKAWLATEARNRKCQQALAELESVLSHLRDFFARTLVPQVLILLGGNALSPKEFYELDLSRLAPFGVDQGLNTAACLRRLFRAIFLADPFSELQTPPLMGTIVMVQGHRDCGEDWFQPKLNYRVPSRGHKLTVTLSCGRPSVPAMASEDYIWFQAPVTLKGFHE”: the “soluble on expression in E. coli” value is reported as “soluble”.

For “MSGEEKEKVKILHVANISTSATRDHIYNMFNYLGKIQDLKVYPSEGNITANTLLKTAFIKFDDERCVEVAQHLTNTVVIDCAIVCLPYPNPVIPDEESFFNSGGSTTAGQRQLPPHVTNKIQESDDGSALLITVDPTLEQLGLPAYPPLPADTDSAKVEEIRRTVYVGNLPKGVDGNEVLELFNMYFGEVMYARMASGPDALPCAYAYVEFSQQASVCNALQNDGFEFKERPLKIQHSRVAIIKPQAKTDEQALGEIEEAIRMGRNGDDRDRRRSRSPRRRRSPSPRRRRDSRDRDRDRDRDRRRSRDRRSRSRDRDRDRDRKRSRSRDRKRRSRSRDNKDRDRKRSRSRDRRRRSKSRDRKRERSRSRSKDRKRDKKRSRSRSPEKRRDKEDRKTEKKENENESSLREKLLEKKAARKDSSDDEWEEKPTPTNGEVKNEEIGNGDVVMASE”, the “soluble on expression in E. coli” value is listed as “soluble”.

Regarding “DWVIPPISSPENEKGPFPKNLVQIKSNKDKEGKVFYSITGQGADTPPVGVFIIERETGWLKVTEPLDRERIATYTLFSHAVSSNGNAVEDPMEILITVTDQNDNKPEFTQEVFKGSVMEGALPGTSVMEVTATDADDDVNTYNAAIAYTILSQDPELPDKNMFTINRNTGVISVVTTGLDRESFPTYTLVVQAADLQGEGLSTTATAVITVTD”, the “soluble on expression in E. coli” value is given as “soluble”.

Regarding “MRWKRTLQLLDVHCEGEIGRVVTGGAPKIPGNTVAEQLHWMNTDPQGEALRRFLTLEPRGTPMGSVDLLLPPKHPDAHAAFVILQPDQAHASSGSNSICATTALLESGMVEMQEPETVIILETAAGLVKATATCRDGRCEKVKLTMVPSFVHELDVSIDTPEWGRVTMDISYGGIFYALVDVRQIGLTIEKANAAKLVAAGMTLKDLVNREMTVVHPEIPAISGVAYVMFRDVDADGSIRTCTTMWPGRADRSPCGTGNSANLATLYARGKVKVGDEYKSRSIIGSEFDVGLSAVTEVAGRPAVIPTIAGRGFTFGLHQVGLDPFDPLGDGFAMTDVWGPEAGNILEHHHHHH”, the “soluble on expression in E. coli” value is “soluble”.

For “CTPKPKSAQPVAEEFFHNVAAQDFDAAAQLTDQDDSARELLSRSWEGLQAEGLDVSLNKVDAKDTVATAKYTLTWKLPKDRTLSYDTSMTLNRINDQWTIRWQPAAVHPKLAANQHLELRAINAERASVVSSDGAEVLVPGVQYRLIADTQHIIDKAATAQTIATHLRAARAADETVPELSASDIQQALETNRGSYSLAVVNERAGDSIKQALAGVSGIRLNKEAAMVNKDPNFAPDVIRRVSSLVNDQLAGANGWSVDAVTQDGVSMQTIERHAPQVAPAIRISLNHNVQVAAERAVNLRKDKQSMLVAIRPSTGEILAIAQSDLADKQGDLALNGQYPPGSTFKIVTASAGIQDQGLNADSIVPCPGTMNIYGRTVTNYNGFSLGNVPLEKAFARSCNTTFANISEQLNKGQLKEIGRDFGIGIDYDIPGLNTLTGSIPQGDTELARTEAGYGQGE”, the “soluble on expression in E. coli” value is listed as “not soluble”.

On to “MLDSVTHSTFLPNASFCDPLMPWTDLFSNEDYYPAFEHQTACDSYWTSVHPEYWTKRHVWEWLQFCCDQYKLDANCISFCHFNISGLQLCSMTQEEFIEAAGICGEYLYFILQNIRSQGYSFFNDAEETKTGIKDYADSSCLKTSGIKSQDCHSRTSLQSSHLWEFVRDLLLSPEENCGILEWEDREQGIFRVVKSEALAKMWGQRKKNDRMTYEKLSRALRYYYKTGILERVDRRLVYKFGKNAHGWQEEKL”, for which the “soluble on expression in E. coli” value is on record as “soluble”.

Take “MSQAHTPSAPLAEVYDVAVVGGGINGVGIAADAAGRGLSVFLCEQHDLAQHTSSASSKLIHGGLRYLEHYEFRLVREALAEREVLLAKAPHIVKPLRFVLPHRPHLRPAWMIRAGLFLYDHLGKREKLPASRGLRFTGSSPLKAEIRRGFEYSDCAVDDARLVVLNAISAREHGAHVHTRTRCVSARRSKGLWHLHLERSDGSLYSIRARALVNAAGPWVARFIQDDLKQKSPYGIRLIQGSHIIVPKLYEGEHAYILQNEDRRIVFAIPYLDRFTMIGTTDREYQGDPAKVAISEEETAYLLQVVNAHFKQQLAAADILHSFAGVRPLCDDESDEPSAITRDYTLSLSAGNGEPPLLSVFGGKLTTYRKLAESALTQLQPFFANLGPAWTAKAPLPGGEQMQSVEALTEQLANRYAWLDRELALRWARTYGTRVWRLLDGVNGEADLGEHLGGGLYAREVDYLCKHEWAQDAEDILWRRSKLGLFLSPSQQVRLGQYLQSEHPHRPRVHAALEHHHHHH”: the “soluble on expression in E. coli” value is on record as “soluble”.

In the case of “MNHKVHHHHHHIEGRHMKVLILGAGNIGRAIAWDLKDEFDVYIGDVNNENLEKVKEFATPLKVDASNFDKLVEVMKEFELVIGALPGFLGFKSIKAAIKSKVDMVDVSFMPENPLELRDEAEKAQVTIVFDAGFAPGLSNILMGRIFQELDLKEGYIYVGGLPKDPKPPLYYKITWSPRDLIEEYTRPARVIRNGKVSKVDPLSEVKKVKIGKFEFEAFISDGLRSMLETINSERLEEWTLRWPGHLEKIKVLRELGFFKPENLDFTLRVIEPLMRYETKDFSIMKVVGKGEEGEMEFFLYDEEDSMFSSMSRVTGFTAAIISRIVAENTCTFGVIPPEILGMREDTFRRIIDELKERGISIEGT”, the “soluble on expression in E. coli” value is “soluble”.

Turning to “HDFASWVSGDSMEPKYHNGSVTLIRETGFDYDGAVYAVVCNSQTYIKRVYLEAEGLRLKYKDIFISYDEDPRVVRIIIGNFIPL”, the “soluble on expression in E. coli” value is listed as “not soluble”.

On to “MGSDKIHHHHHHMSVNGSQRVDLEVVANLIPPQSRVLDVGSGDGSLLELLQDTKQVDGRGLELSQRGVNECVARGLSVIQGDADKDLEFYPDKGFDFVVLSQTLQATRNPKLVLDELLRIGNRAIVSFPNFGHWRVRLSLFVKGRMPVTQDLPYSWYDTPNIHFCTIRDFVNLCEELGATVEKATALDAAGQKIGLSMPWWFWNFFGQQAVFLLKRN”, for which the “soluble on expression in E. coli” value was “not soluble”.

As for “MGSDKIHHHHHHMALFEGYERRIDGINTVLKKYGMNSIEDAKKVCDEKGINVYDIVRSIQPICFENACWAYTLGAAIAIKNGCTSASDAAKNIGEGLQAFCIPGSVADDRKVGLGHGNLGAMLLSEDAKCFAFLAGHESFAAAEGAIGIAKSANKVRKEPLRVILNGLGKDAAQIISRINGFTYVQTQFDYYTGELKIVKETAYSKGERAEVRCFGADDVREGVAIMHHEGVDVSITGNSTNPTRFQHPVAGTYKKECFEMGKKYFSVASGGGTGRTLHPDNMAAGPASYGMTDTMGRMHSDAQFAGSSSVPAHVDMMGLIGMGNNPMVGATVAVAVAIEEAMK”, the “soluble on expression in E. coli” value was “not soluble”.

For “MAEPKSFNIPYRSKLTERIEPGQTLIIRGKTIDESKRFNINLHKDSPDFSGNDVPLHLSIRFDEGKIVYNAYTKGTWGKEERAKNPIKKGDDFDIRIRAHDSKFQVSINHKEVKNFEHRIPLNSVSHLSIDGDVVLNHVQWGGKYYPVPYESGIAADGLVPGKTLVVYGTPEKKAKKFNINLLKKNGDIALHFNPRFDEKANGFMCAKPTPGSVVRNSLVNGEWGNEEREGKNPFERLTAFDLEIRNEEFAFQIFVNGERFASYAHRVDPHDIAGLQIQGDIELTGIQVVNNQPAQE”, the “soluble on expression in E. coli” value was “not soluble”.

As to “MKPDIYALLERALLSGDPDEKGRLTDEAFAAVQNMDGAETNTPPLDFPRAGRPDKPVLVAPSQLTPRKMNTTEGYAAMLHAIAHIEFNAVNLALDAAYRFRTLPFQFVRDWVKVAKEEVYHFRLMRERLRAFGFDYGDFEAHNHLWDMAYKTAYDPLLRMALVPRVLEARGLDVTPGIRAKVAQRGDSETCGVLDIIYRDEVGHVAIGNRWYQHLCRERGLEPIALFRSLIARYDMFIFRGYVNIEAREKAGFSRFELDMLEDFEQSLKQNKNTVMGHHHHHHSH”, the “soluble on expression in E. coli” value is given as “soluble”.

With “MGHHHHHHSHMIQYIPQRPPIVMISTLVSAEKNVTETELEIPAHGLFVKDGVLHEPGLIENVAQTAAAGVGYACTLTSQPVPVGFIGAVKNLEIDYLPKVGDVLETRVEVLEEIFDMTLIKGESFVKGKRVLTCEMKIVLKK”, the “soluble on expression in E. coli” value was “not soluble”.

“MGKLKWFSGGKERSNQAENIITDLLDDLKTDLDNESLKKVLENYLEELKQKSASVPLILSRMNLDISKAIRNDGVTLSDYQSKKLKELTSISNIRYGY”: the “soluble on expression in E. coli” value was “soluble”.

Regarding “MARFIAQLLLLASCVAAGQAVTAFLGERVTLTSYWRRVSLGPEIEVSWFKLGPGEEQVLIGRMHHDVIFIEWPFRGFFDIHRSANTFFLVVTAANISHDGNYLCRMKLGETEVTKQEHLSVVKPLTLSVHSERSQFPDFSVLTVTCTVNAFPHPHVQWLMPEGVEPAPTAANGGVMKEKDGSLSVAVDLSLPKPWHLPVTCVGKNDKEEAHGVYVSGYLSQ”, the “soluble on expression in E. coli” value is reported as “soluble”.

As for “EIQMTQTTSSLSASLGDRVTISCRASQDISNFLNWYQQKPDGTVKLLIYYTSTLHSGVPSRFSGSGSGTDYSLTISNLEQEDIATYFCQQGKTLPPTFGGGTKLEIKRADAAPTVSIFPPSSEQLTSGGASVVCFLNNFYPKEINVKWKIDGSERQNGVLDSWTEQDSKDSTYSMSSTLTLTKDEYERHNSYTCEATHKTSTSPIVKSFNRNEC”, the “soluble on expression in E. coli” value was “soluble”.

Take “MSLIDTMQYGKNDSLRDEIKAYWSGRAATFDLSPGHEIFSEDERAAWHALILKHLGRGEGRKALDLASGTGVISHLMDDLGFQVTGMDWSETMLGLAREKAKSRGRNIRFFVGDAENTMEPDESADVIITRHLVWTLVDPQASFAEWFRVLKPGGKLLIVDGDFVNTGWRERLVKKLAVSLESIGLVKADQPHKPADPENTFNSILSRVYFSKGARAGDVATMLGATGFEPVSVDQELRAIHRAQAKNFSLLKGILRGLQHRYAVCAVKPDTSVKGEGHHHHHH”: the “soluble on expression in E. coli” value is recorded as “not soluble”.

With “MSLKITTEQVCEALDTWVCRPGMTQEQATILITEAFWALKERPNIDVQRVTFNDGEVDQRALGVNRVKIFERWKAIDTRDKRDKFTALIPAIMEAIRISDFRLYCEITDGKSITYMIAGLNKEYGDVVESGLLFADPVVVERETDELIEKAIAFKHAYRQQYQYYFADKQMSARGAYEYRCTTMGEGHHHHHH”, the “soluble on expression in E. coli” value was “soluble”.

Turning to “MSETLDQWRAGLTLGFAPGHAGRTVLRERAHYGPMLVQRALYPEGPQVCHVAILHPPSGIAGGDALEIRVDVAGGARAALTTPGATRWYKSNGRQASQDVHLRVAAGGRLDWLPLESIFFEEADALARNRIQLESGAAAIGWDLIQLGRVNQSGHWSQGRLHTATELYVDGRLLWVDQGLVGAQDDVRRQVSGLAGFPVHAALWSFGPRLDAEQNEELAGLMPWSDTLRGAATTMPYDATQSLCLVRCLGVHMEDVRAVMTDAWAYLRPRVLDTPAVVPRLWATKLAAALEHHHHHH”, the “soluble on expression in E. coli” value is listed as “not soluble”.
